# Reference: article doi:10.1101/2021.03.12.434960 (bioRxiv, 2021)
# B1: full-length human KIF5C, C-terminal mScarlet-StrepII (natural protein)
# chain: MADPAECSIKVMCRFRPLNEAEILRGDKFIPKFKGDETVVIGQGKPYVFDRVLPPNTTQEQVYNACAKQIVKDVLEGYNGTIFAYGQTSSGKTHTMEGKLHDPQLMGIIPRIAHDIFDHIYSMDENLEFHIKVSYFEIYLDKIRDLLDVSKTNLAVHEDKNRVPYVKGCTERFVSSPEEVMDVIDEGKANRHVAVTNMNEHSSRSHSIFLINIKQENVETEKKLSGKLYLVDLAGSEKVSKTGAEGAVLDEAKNINKSLSALGNVISALAEGTKTHVPYRDSKMTRILQDSLGGNCRTTIVICCSPSVFNEAETKSTLMFGQRAKTIKNTVSVNLELTAEEWKKKYEKEKEKNKTLKNVIQHLEMELNRWRNGEAVPEDEQISAKDQKNLEPCDNTPIIDNIAPVVAGISTEEKEKYDEEISSLYRQLDDKDDEINQQSQLAEKLKQQMLDQDELLASTRRDYEKIQEELTRLQIENEAAKDEVKEVLQALEELAVNYDQKSQEVEDKTRANEQLTDELAQKTTTLTTTQRELSQLQELSNHQKKRATEILNLLLKDLGEIGGIIGTNDVKTLADVNGVIEEEFTMARLYISKMKSEVKSLVNRSKQLESAQMDSNRKMNASERELAACQLLISQHEAKIKSLTDYMQNMEQKRRQLEESQDSLSEELAKLRAQEKMHEVSFQDKEKEHLTRLQDAEEMKKALEQQMESHREAHQKQLSRLRDEIEEKQKIIDEIRDLNQKLQLEQEKLSSDYNKLKIEDQEREMKLEKLLLLNDKREQAREDLKGLEETVSRELQTLHNLRKLFVQDLTTRVKKSVELDNDDGGGSAAQKQKISFLENNLEQLTKVHKQLVRDNADLRCELPKLEKRLRATAERVKALESALKEAKENAMRDRKRYQQEVDRIKEAVRAKNMARRAHSAQIAKPIRPGHYPASSPTAVHAIRGGGGSSSNSTHYQK
# Experiments:
# [1] = molecular target: T1, full-length human KIF5B, C-terminal mScarlet-StrepII (human, UniProt P33176 1-963)
# T1 sequence: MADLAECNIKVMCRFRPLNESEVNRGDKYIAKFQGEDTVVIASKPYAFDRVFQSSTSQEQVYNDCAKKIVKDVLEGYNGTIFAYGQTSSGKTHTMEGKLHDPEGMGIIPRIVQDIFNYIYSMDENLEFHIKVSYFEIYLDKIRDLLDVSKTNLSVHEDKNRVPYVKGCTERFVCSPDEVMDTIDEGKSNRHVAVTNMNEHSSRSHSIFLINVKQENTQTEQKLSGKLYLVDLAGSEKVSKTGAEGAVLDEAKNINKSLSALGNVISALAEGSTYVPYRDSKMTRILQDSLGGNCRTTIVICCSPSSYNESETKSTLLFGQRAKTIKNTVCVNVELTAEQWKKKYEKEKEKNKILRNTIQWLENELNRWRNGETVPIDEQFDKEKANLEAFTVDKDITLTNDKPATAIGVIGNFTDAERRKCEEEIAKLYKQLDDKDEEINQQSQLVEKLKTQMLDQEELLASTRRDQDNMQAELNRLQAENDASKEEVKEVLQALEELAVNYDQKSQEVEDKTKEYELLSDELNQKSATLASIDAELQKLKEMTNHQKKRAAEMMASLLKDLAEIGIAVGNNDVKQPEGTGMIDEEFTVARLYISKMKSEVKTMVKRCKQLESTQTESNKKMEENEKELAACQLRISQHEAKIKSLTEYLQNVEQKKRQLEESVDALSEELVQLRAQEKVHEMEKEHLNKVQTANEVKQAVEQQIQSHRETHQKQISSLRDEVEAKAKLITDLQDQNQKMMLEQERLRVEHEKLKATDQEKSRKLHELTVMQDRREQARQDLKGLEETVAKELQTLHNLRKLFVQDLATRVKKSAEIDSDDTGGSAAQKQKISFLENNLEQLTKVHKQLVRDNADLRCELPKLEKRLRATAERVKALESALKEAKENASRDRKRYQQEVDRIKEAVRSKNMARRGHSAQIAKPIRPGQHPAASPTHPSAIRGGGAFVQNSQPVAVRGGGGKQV
# [2] = molecular target: B1
# [3] = molecular target: T2, full-length human KIF5A, C-terminal mScarlet-StrepII (human, UniProt Q12840 1-1032)
# T2 sequence: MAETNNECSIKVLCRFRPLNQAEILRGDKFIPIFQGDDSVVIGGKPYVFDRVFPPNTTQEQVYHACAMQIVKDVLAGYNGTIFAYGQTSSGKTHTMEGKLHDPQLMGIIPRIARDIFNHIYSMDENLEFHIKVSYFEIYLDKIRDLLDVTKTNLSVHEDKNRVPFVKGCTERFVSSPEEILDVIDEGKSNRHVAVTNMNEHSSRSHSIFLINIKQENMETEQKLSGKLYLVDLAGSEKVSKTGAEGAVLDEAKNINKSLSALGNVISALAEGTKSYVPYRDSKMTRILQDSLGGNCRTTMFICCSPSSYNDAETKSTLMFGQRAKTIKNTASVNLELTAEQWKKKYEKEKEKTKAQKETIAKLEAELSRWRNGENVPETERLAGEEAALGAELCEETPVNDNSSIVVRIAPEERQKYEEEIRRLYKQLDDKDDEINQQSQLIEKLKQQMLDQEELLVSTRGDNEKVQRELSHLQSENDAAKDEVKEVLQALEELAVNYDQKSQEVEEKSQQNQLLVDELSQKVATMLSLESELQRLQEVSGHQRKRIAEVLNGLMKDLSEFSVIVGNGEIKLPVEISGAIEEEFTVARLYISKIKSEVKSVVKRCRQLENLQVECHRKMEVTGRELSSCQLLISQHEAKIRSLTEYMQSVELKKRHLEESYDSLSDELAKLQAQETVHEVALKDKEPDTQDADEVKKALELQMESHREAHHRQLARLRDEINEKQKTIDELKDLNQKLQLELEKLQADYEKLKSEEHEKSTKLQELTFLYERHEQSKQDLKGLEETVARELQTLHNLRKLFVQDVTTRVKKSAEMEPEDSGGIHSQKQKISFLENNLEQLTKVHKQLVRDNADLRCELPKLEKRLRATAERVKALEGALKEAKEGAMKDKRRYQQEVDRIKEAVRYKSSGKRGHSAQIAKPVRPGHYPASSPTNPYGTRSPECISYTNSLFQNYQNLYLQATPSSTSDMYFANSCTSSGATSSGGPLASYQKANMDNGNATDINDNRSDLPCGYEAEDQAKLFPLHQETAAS
# [4] = molecular target: the molecule itself; experiment: SEC-MALS
# [5] = molecular target: T3, KIF5B-Δhinge (Δ505-610), C-terminal mScarlet-StrepII (human, UniProt P33176 1-963, Δ505-610); experiment: TIRF microscopy on surface-bound microtubules
# T3 sequence: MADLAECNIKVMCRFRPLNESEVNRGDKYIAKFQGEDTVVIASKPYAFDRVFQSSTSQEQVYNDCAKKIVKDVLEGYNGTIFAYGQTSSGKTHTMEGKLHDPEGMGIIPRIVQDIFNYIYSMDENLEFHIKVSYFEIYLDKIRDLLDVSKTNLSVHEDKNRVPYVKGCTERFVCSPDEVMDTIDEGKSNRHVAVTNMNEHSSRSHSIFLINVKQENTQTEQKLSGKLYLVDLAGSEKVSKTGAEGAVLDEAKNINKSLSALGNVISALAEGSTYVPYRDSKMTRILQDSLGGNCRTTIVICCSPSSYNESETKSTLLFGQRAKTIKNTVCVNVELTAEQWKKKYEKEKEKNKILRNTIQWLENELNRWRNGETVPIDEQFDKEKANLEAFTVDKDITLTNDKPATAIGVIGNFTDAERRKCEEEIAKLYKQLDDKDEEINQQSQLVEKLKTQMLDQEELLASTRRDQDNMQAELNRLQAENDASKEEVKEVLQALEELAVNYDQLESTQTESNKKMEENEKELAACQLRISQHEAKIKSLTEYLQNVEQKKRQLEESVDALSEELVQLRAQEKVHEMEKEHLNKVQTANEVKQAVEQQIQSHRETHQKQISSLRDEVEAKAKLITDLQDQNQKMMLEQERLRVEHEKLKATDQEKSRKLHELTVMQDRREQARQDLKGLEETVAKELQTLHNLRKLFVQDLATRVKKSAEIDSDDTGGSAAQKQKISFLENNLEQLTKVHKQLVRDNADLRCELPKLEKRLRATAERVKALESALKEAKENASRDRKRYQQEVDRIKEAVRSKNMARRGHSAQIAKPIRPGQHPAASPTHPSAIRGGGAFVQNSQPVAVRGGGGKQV
binder,measurement,setting,value
human KLC1 with N-terminal 6xHis-FLAG (co-expressed with KIF5) (natural protein) MYDNMSTMVYIKEDKLEKLTQDEIISKTKQVIQGLEALKNEHNSILQSLLETLKCLKKDDESNLVEEKSNMIRKSLEMLELGLSEAQVMMALSNHLNAVESEKQKLRAQVRRLCQENQWLRDELANTQQKLQKSEQSVAQLEEEKKHLEFMNQLKKYDDDISPSEDKDTDSTKEPLDDLFPNDEDDPGQGIQQQHSSAAAAAQQGGYEIPARLRTLHNLVIQYASQGRYEVAVPLCKQALEDLEKTSGHDHPDVATMLNILALVYRDQNKYKDAANLLNDALAIREKTLGKDHPAVAATLNNLAVLYGKRGKYKEAEPLCKRALEIREKVLGKDHPDVAKQLNNLALLCQNQGKYEEVEYYYQRALEIYQTKLGPDDPNVAKTKNNLASCYLKQGKFKQAETLYKEILTRAHEREFGSVDDENKPIWMHAEEREECKGKQKDGTSFGEYGGWYKACKVDSPTVTTTLKNLGALYRRQGKFEAAETLEEAAMRSRKQGLDNVHKQRVAEVLNDPENMEKRRSRESLNVDVVKYESGPDGGEEVSMSVEWNGGVSGRASFCGKRQQQQWPGRRHR,stoichiometry N,[1],~0.8 KLC1 per KHC
same,stoichiometry N,[2],~0.8 KLC1 per KHC
same,stoichiometry N,[3],~0.8 KLC1 per KHC
B1,stoichiometry N,[4],2
"KLC1-CC (aa 1-200), N-terminal 6xHis-2xStrepII-sfGFP (domain or fragment) MYDNMSTMVYIKEDKLEKLTQDEIISKTKQVIQGLEALKNEHNSILQSLLETLKCLKKDDESNLVEEKSNMIRKSLEMLELGLSEAQVMMALSNHLNAVESEKQKLRAQVRRLCQENQWLRDELANTQQKLQKSEQSVAQLEEEKKHLEFMNQLKKYDDDISPSEDKDTDSTKEPLDDLFPNDEDDPGQGIQQQHSSAAA",binding result,[5],binds
